From PMC9792514, “C-type lectin-like receptor (CLEC)-2, the ligand of podoplanin, induces morphological changes in podocytes” (Scientific Reports, 2022)
Blank lines part the entries; values can stand above or below the molecule they belong to.

Columns and labels:
[1] = target: Fc protein (control); assay: native gel or EMSA; Blue Native PAGE of the purified recombinant proteins in aqueous solution
[2] = target: T1, mouse podoplanin (PDPN) (mouse (endogenous in primary cultured …, UniProt Q62011 23-172)); assay: cell-based or functional assay
T1 sequence (looked up): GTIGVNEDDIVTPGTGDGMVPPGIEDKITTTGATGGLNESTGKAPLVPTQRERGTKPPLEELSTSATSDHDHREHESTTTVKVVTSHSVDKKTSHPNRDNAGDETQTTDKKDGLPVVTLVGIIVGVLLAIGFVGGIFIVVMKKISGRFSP

stoichiometry N [1]: 4
Molecule: Fc protein (control) (domain or fragment)

pERM/ERM ratio by Western blot of glomerular lysate after infusion of FLAG-CLEC-2 (5 ug/g body weight), against controls [2]: 0.65 fold
B1: StepTagII-3FLAG-CLEC-2, a fusion of StrepTactin FLAG double tags and the C-terminal extracellular domain of mouse CLEC-2 (51-229) (domain or fragment, UniProt Q9JL99 51-229, looked up)
chain: GIMSVTQQKYLLAEKENLSATLQQLAKKFCQELIRQSEIKTKSTFEHKCSPCATKWRYHGDSCYGFFRRNLTWEESKQYCTEQNATLVKTASQSTLDYIAERITSVRWIGLSRQNSKKDWMWEDSSVLRKNGINLSGNTEENMNCAYLHNGKIHPASCKERHYLICERNAGMTRVDQLL
